# In patent publication US20250066826A1, “ARTIFICIAL SYNTHESIS METHOD FOR MALONYL-COENZYME A (COA) AND USE THEREOF” (SHANGHAI JIAO TONG UNIVERSITY, priority 2023, published 2025):
# Legend:
# Assay type in all cases: biochemical
# [1] = Transaminase activity test using pyruvic acid as a substrate (coupled with MCR-C, NADPH at 340 nm); settings: 5 mM pyruvic acid, 5 mM β-alanine, 2.5 mM NADP+, 2.5 mM CoA, 1 M purified transaminase, 10 M MCR-C, pH 7.8, 37° C.
# Source text: It can be seen that the BauA has the best effect (FIG. 4A).
# [2] = Transaminase activity test using oxaloacetic acid as a substrate; settings: 5 mM oxaloacetic acid, 5 mM β-alanine, 10 M purified transaminase, 10 M MCR-C, pH 7.8, 37° C.
# [3] = Transaminase activity test using α-ketoglutaric acid as a substrate; settings: 5 mM α-ketoglutaric acid, 5 mM β-alanine, 10 M purified transaminase, 10 M MCR-C, pH 7.8, 37° C.
# [4] = Oxidoreductase activity test (coupled with BauA, increase at 340 nm); settings: 1 M purified oxidoreductase, 37° C.; for activity of the target enzyme (in words): in-vitro reaction with 10 M BauA
# Method: Oxidoreductase activity test: in-vitro reaction was carried out in a total reaction volume of 200 μL, containing 100 mM Tris buffer (pH 7.8), 2 mM MgCl2, 3 mM DTT, 5 mM pyruvic acid, 5 mM 3-alanine, 2.5 mM NADP^+, 2.5 mM CoA, 10 M BauA, and 1 M purified oxidoreductase, the reaction mixture was cultured at 37° C., and the increase in 340 nm was monitored.
Molecule,activity of the transaminases [1],activity of the transaminases [2],other results
"CCNA_03245: transaminase from Caulobacter vibrioides, SEQ ID NO: 9 (protein, The sequence is synthetized.) MLPMPDFGANDLDAFWMPFTPNRRFKRHPRMLSSASGMWYRTPESREVLDATSGLWCVNAGHDRPKIREAIQKQAAEMDYAPCFNMGHPLAFQFASRLAQITPKGLDRIFFTNSGSESVDTALKIALAYHRARGKGTKTRLIGRERGYHGVGFGGISVGGIPKNRMYFGSLLTGVDHLPHTHGLPGNTCAKGQPENGAHLADDLERIVALHDASNIAAVIVEPVAGSTGVLIPPKGYLERLRAICDKHDILLIFDEVITGFGRVGAPFAAERFGVTPDLICMAKGLTNAAVPCGAVAASGKIYDAMMDGADAPIELFHGYTYSAHPLACAAGLATLETYREDDLFARAAGLEGYWQDAMHSLADARHVVDVRNLGLVAGIELEPRPGAPTARAMEVFETCFDEGLLIRVTGDIIALSPPLILEKDHIDRMVETIRRVLGQVD",0.13 µmol/min/mg,–,–
"PydD2: transaminase from Bacillus megaterium, SEQ ID NO: 10 (protein, The sequence is synthetized.) MVQVSQNEKDLRAKDEQYVWHGMKPYSPDATMVATKAKGAWITDEQGNRYLDAMAGLWCVNTGYGRDELALAAYEQLKELAYFPLTQSHVPAIKLAEKLNEMLGDDYVIFFSNSGSEANETAFKIVRQYHQQKGEHSRYKFISRYRGYHGNSMGALAATGQAQRKYKYEPLAPGFIHVAPPDSYRGQDDYDAPKEQLQSVKDIDNVMTWELSETIAAVIMEPIITGGGILLPPQNYMKGVKETCEKHGALLIADEVICGFGRTGEAFGFMNYDVKPDIITMAKGITSAYLPLSATAVKKEIYEAFKDSDQYEYFRHVNTFGGSPAACALALKNLEIMERENLFDRSKQLGAYVLSELTPLIDSHPYVGDVRGKGLLIGIELVADKQTKEPLDVNLVNEVVAKCKSKGVIIGKNGATVAGYNNVLTLSPPLNIEESDIELLLATITYALDSIK",0.96 µmol/min/mg,0.49 µmol/min/mg,–
"YhxA: transaminase from Bacillus cereus, SEQ ID NO: 11 (protein, The sequence is synthetized.) MELMIVQVTEQTQSLKKTDEKYLWHAMRGAAPSPTNLIITKAEGAWVTDIDGNRYLDGMSGLWCVNVGYGRKELARAAFEQLEEMPYFPLTQSHVPAIKLAEKLNEWLDDEYVIFFSNSGSEANETAFKIARQYHQQKGDHGRYKFISRYRAYHGNSMGALAATGQAQRKYKYEPLGQGFLHVAPPDTYRNPEDVHTLASAEEIDRVMTWELSQTVAGVIMEPIITGGGILMPPDGYMEKVKEICEKHGALLICDEVICGFGRTGKPFGFMNYGVKPDIITMAKGITSAYLPLSATAVRREVYEAFVGSDDYDRFRHVNTFGGNPAACALALKNLEIMENEKLIERSKELGERLLYELEDVKEHPNVGDVRGKGLLLGIELVEDKQTKEPASIEKMNKVINACKEKGLIIGKNGDTVAGYNNILQLAPPLSITEEDFTFIVKTMKECLAQL",0.15 µmol/min/mg,–,–
"AptA: transaminase from Acinetobacter pittii, SEQ ID NO: 8 (protein, The sequence is synthetized.) MVMFDTDKFSDSEHTLDAVQPNNNMYINYQAHWMPFSANRNFAKDPRMIVGAKGSYLIDDSGREIYDSLSGLWTCGAGHTLPEIQQAVSAQLGQLDYSPAFQFGHPLSFKLADKIVQHMPEKLQHVFFTNSGSESADTAIKMARAYWRIKGKPSKTKLIGRARGYHGVNVAGTSLGGIGGNRKMFGQLMDVDHLPHTLQPNLTFTKGCAETGGVELANEMLKLIELHDASNIAAVIVEPISGSAGCIVPPTGYLQRLREICDQHDILLIFDEVITGFGRLGTWTGAEYFGVTPDILNFAKQVTNGAIPLGGVVASHEIYSAFMQQELPEHAIEFTHGYTYSAHPVACAAALAALEVLEKKNLLAQSAALAPSFEKMLHGLKGAPHVLDIRNCGLIGALQLAPRDGDATIRGFELGMKLWKEGFYVRFGGDTLQFGPMFNGTEADIDRLMNAVGDALYQVN",0.90 µmol/min/mg,0.42 µmol/min/mg,–
"Pyd4: transaminase from Saccharomyces kluyveri, SEQ ID NO: 72 (protein, The sequence is synthetized.) MPSYSVAELYYPDEPTEPKISTSSYPGPKAKQELEKLSNVFDTRAAYLLADYYKSRGNYIVDQDGNVLLDVYAQISSIALGYNNPEILKVAKSDAMSVALANRPALACFPSNDYGQLLEDGLLKAAPQGQDKIWTALSGSDANETAFKACFMYQAAKKRNGRSFSTEELESVMDNQLPGTSEMVICSFEKGFHGRLFGSLSTTRSKPIHKLDIPAFNWPKAPFPDLKYPLEENKEANKAEESSCIEKFSQIVQEWQGKIAAVIIEPIQSEGGDNHASSDFFQKLREITIENGILMIVDEVQTGVGATGKMWAHEHWNLSNPPDLVTFSKKFQAAGFYYHDPKLQPDQPFRQFNTWCGDPSKALIAKVIYEEIVKHDLVTRTAEVGNYLFNRLEKLFEGKNYIQNLRGKGQGTYIAFDFGTSSERDSFLSRLRCNGANVAGCGDSAVRLRPSLTFEEKHADVLVSIFDKTLRQLYG",–,–,activity of the transaminases [3]: 1.15 µmol/min/mg
"pydD: transaminase from Ureibacillus massiliensis, SEQ ID NO: 71 (protein, The sequence is synthetized.) MSDYLSIKEQDKQYVLHSWAKQGSFNPKVIAKAEGVCFWDDAGNRYFDMSSQLVYVNVGHQHPKVLKAFQEIGTYPLAGPSFATKPKSDLSQRIIELAPSNMAKVFYTSGGAEANDHAVKIARMVSGRYKIFSRYRSYHGATFGAGNLTGESRRFAAEPGLPGFVKFEVPYLYREVIDFDSEEAATAYYLGKLRNQILYEGSDTIAAIFIEPIPGSNGVLIPPKGYLEGVRALCDEFGILMICDEVMTGFGRTGKGFAVDHYDFKPDIMTFAKGVTSGYAPLGGVIISEDISRFFDENVLMTGLTYSGHTMCTQIGVANLEVYEEENIFENAEKMGILLKQRLEKLLTFPSIGEIRSIGLFAGVELVKDKATKEPIIQYGLDYGKDPVGLMNKFISMLSANGFYTYSHESTVIIAPPLIITEEQINEAMDIFESTLKQFEKEGLFPEETLSV",–,–,activity of the transaminases [3]: 0.825 µmol/min/mg
"Msed_0709: oxidoreductase from Metallosphaera sedula, SEQ ID NO: 13 (protein, The sequence is synthetized.) MRRTLKAAILGATGLVGIEYVRMLADHPYIKPTYLAGKGSVGKPYGEIVRWQTVGNVPKEVANQEVKPTDPKLMDDVDIIFSPLPQGAAGPVEEQFAKLGFNVISNSPDHRFDMDVPMIIPEVNPHTVTLIDEQRKRRDWKGFIVTTPLCTAQGAAIPLTPIYQNFKMSGVMITTMQSLSGAGYPGIASLDIVDNALPLGDGYDAKTVKEITRILSEVKRNVQEPGVNEITLDATTHRIATIHGHYEVAYVTFKEDTDVRKVMESMESFKGEPQDLKLPTAPEKPIIVTTQDARPQVFFDRWAGNPPGMSVVVGRLKQVNPRTIRFVSLIHNTVRGAAGGGVLTAELLVEKGYIDKR",–,–,activity of the target enzyme (in words) [4]: exhibit the activity of the target enzyme
"BauA: transaminase from Pseudomonas aeruginosa, amino acid sequence SEQ ID NO: 7 (protein, The sequence is synthetized.) MNQPLNVAPPVSSELNLRAHWMPFSANRNFQKDPRIIVAAEGSWLTDDKGRKVYDSLSGLWTCGAGHSRKEIQEAVARQLGTLDYSPGFQYGHPLSFQLAEKIAGLLPGELNHVFFTGSGSECADTSIKMARAYWRLKGQPQKTKLIGRARGYHGVNVAGTSLGGIGGNRKMFGQLMDVDHLPHTLQPGMAFTRGMAQTGGVELANELLKLIELHDASNIAAVIVEPMSGSAGVLVPPVGYLQRLREICDQHNILLIFDEVITAFGRLGTYSGAEYFGVTPDLMNVAKQVTNGAVPMGAVIASSEIYDTFMNQALPEHAVEFSHGYTYSAHPVACAAGLAALDILARDNLVQQSAELAPHFEKGLHGLQGAKNVIDIRNCGLAGAIQIAPRDGDPTVRPFEAGMKLWQQGFYVRFGGDTLQFGPTFNARPEELDRLFDAVGEALNGIA",1.60 µmol/min/mg,0.46 µmol/min/mg,–
"MCR-C: oxidoreductase (malonyl-CoA reductase) from Chloroflexus aurantiacu, SEQ ID NO: 70 (protein, The sequence is synthetized.) SATTGARSASVGWAESLIGLHLGKVALITGGSAGIGGQIGRLLALSGARVMLAARDRHKLEQMQAMIQSELAEVGYTDVEDRVHIAPGCDVSSEAQLADLVERTLSAFGTVDYLINNAGIAGVEEMVIDMPVEGWRHTLFANLISNYSLMRKLAPLMKKQGSGYILNVSSYFGGEKDAAIPYPNRADYAVSKAGQRAMAEVFARFLGPEIQINAIAPGPVEGDRLRGTGERPGLFARRARLILENKRLNELHAALIAAARTDERSMHELVELLLPNDVAALEQNPAAPTALRELARRFRSEGDPAASSSSALLNRSIAAKLLARLHNGGYVLPADIFANLPNPPDPFFTRAQIDREARKVRDGIMGMLYLQRMPTEFDVAMATVYYLADRVVSGETFHPSGGLRYERTPTGGELFGLPSPERLAELVGSTVYLIGEHLTEHLNLLARAYLERYGARQVVMIVETETGAETMRRLLHDHVEAGRLMTIVAGDQIEAAIDQAITRYGRPGPVVCTPFRPLPTVPLVGRKDSDWSTVLSEAEFAELCEHQLTHHFRVARWIALSDGARLALVTPETTATSTTEQFALANFIKTTLHAFTATIGVESERTAQRILINQVDLTRRARAEEPRDPHERQQELERFIEAVLLVTAPLPPEADTRYAGRIHRGRAITV",–,–,"oxidoreductase activity ([4]; 5 mM pyruvic acid, 5 mM alanine, 2.5 mM NADP+, 2.5 mM CoA, 10 M BauA): 2.0 µmol/min/mg; activity of the target enzyme (in words) [4]: exhibit the activity of the target enzyme"
